From PMC5581047

Target: GST-ERα (179-312), C/D domains (UniProt P03372)
Assay: pull-down; GST-ERα domains or full length bound to glutathione-Sepharose 4B beads, incubated with recombinant Api5 protein; Western blot

percent of the binding of Api5 to full length GST-ERα (1-595): > 60%
B1: Recombinant Api5 protein (natural protein)
chain: MPTVEELYRNYGILADATEQVGQHKDAYQVILDGVKGGTKEKRLAAQFIPKFFKHFPELADSAINAQLDLCEDEDVSIRRQAIKELPQFATGENLPRVADILTQLLQTDDSAEFNLVNNALLSIFKMDAKGTLGGLFSQILQGEDIVRERAIKFLSTKLKTLPDEVLTKEVEELILTESKKVLEDVTGEEFVLFMKILSGLKSLQTVSGRQQLVELVAEQADLEQTFNPSDPDCVDRLLQCTRQAVPLFSKNVHSTRFVTYFCEQVLPNLGTLTTPVEGLDIQLEVLKLLAEMSSFCGDMEKLETNLRKLFDKLLEYMPLPPEEAENGENAGNEEPKLQFSYVECLLYSFHQLGRKLPDFLTAKLNAEKLKDFKIRLQYFARGLQVYIRQLRLALQGKTGEALKTEENKIKVVALKITNNINVLIKDLFHIPPSYKSTVTLSWKPVQKVEIGQKRASEDTTSGSPPKKSSAGPKRDARQIYNPPSGKYSSNLGNFNYEQRGAFRGSRGGRGWGTRGNRSRGRLY
